Assay results from US20180298070A1, “PEPTIDE COMPOUND” (Takeda Pharmaceutical Company Limited, published 2018).
Non-standard residues stand in square brackets, D forms with d. No end group written: not given here. Aib = CC(C)(N)C(=O)O

B1: Compound 8 (peptide)
peptide: Y[Aib]EGTVKSDYSI[Aib]LDKQAQ[Aib]EFVKWLLKGGPSSGAPPPSK-NH2
modifications: N-terminus assumed
SMILES: CC[C@H](C)[C@H](NC(=O)[C@H](CO)NC(=O)[C@H](Cc1ccc(O)cc1)NC(=O)[C@H](CC(=O)O)NC(=O)[C@H](CO)NC(=O)[C@H](CCCCN)NC(=O)[C@@H](NC(=O)[C@@H](NC(=O)CNC(=O)[C@H](CCC(=O)O)NC(=O)C(C)(C)NC(=O)[C@@H](N)Cc1ccc(O)cc1)[C@@H](C)O)C(C)C)C(=O)NC(C)(C)C(=O)N[C@@H](CC(C)C)C(=O)N[C@@H](CC(=O)O)C(=O)N[C@@H](CCCCN)C(=O)N[C@@H](CCC(N)=O)C(=O)N[C@@H](C)C(=O)N[C@@H](CCC(N)=O)C(=O)NC(C)(C)C(=O)N[C@@H](CCC(=O)O)C(=O)N[C@@H](Cc1ccccc1)C(=O)N[C@H](C(=O)N[C@@H](CCCCN)C(=O)N[C@@H](Cc1c[nH]c2ccccc12)C(=O)N[C@@H](CC(C)C)C(=O)N[C@@H](CC(C)C)C(=O)N[C@@H](CCCCN)C(=O)NCC(=O)NCC(=O)N1CCC[C@H]1C(=O)N[C@@H](CO)C(=O)N[C@@H](CO)C(=O)NCC(=O)N[C@@H](C)C(=O)N1CCC[C@H]1C(=O)N1CCC[C@H]1C(=O)N1CCC[C@H]1C(=O)N[C@@H](CO)C(=O)N[C@@H](CCCCN)C(N)=O)C(C)C
B2: Compound 10 (peptide)
peptide: Y[Aib]EGTVKSDYSILLDKQAQ[Aib]EFVKWLLKGGPSSGAPPPSK-NH2
modifications: N-terminus assumed
SMILES: CC[C@H](C)[C@H](NC(=O)[C@H](CO)NC(=O)[C@H](Cc1ccc(O)cc1)NC(=O)[C@H](CC(=O)O)NC(=O)[C@H](CO)NC(=O)[C@H](CCCCN)NC(=O)[C@@H](NC(=O)[C@@H](NC(=O)CNC(=O)[C@H](CCC(=O)O)NC(=O)C(C)(C)NC(=O)[C@@H](N)Cc1ccc(O)cc1)[C@@H](C)O)C(C)C)C(=O)N[C@@H](CC(C)C)C(=O)N[C@@H](CC(C)C)C(=O)N[C@@H](CC(=O)O)C(=O)N[C@@H](CCCCN)C(=O)N[C@@H](CCC(N)=O)C(=O)N[C@@H](C)C(=O)N[C@@H](CCC(N)=O)C(=O)NC(C)(C)C(=O)N[C@@H](CCC(=O)O)C(=O)N[C@@H](Cc1ccccc1)C(=O)N[C@H](C(=O)N[C@@H](CCCCN)C(=O)N[C@@H](Cc1c[nH]c2ccccc12)C(=O)N[C@@H](CC(C)C)C(=O)N[C@@H](CC(C)C)C(=O)N[C@@H](CCCCN)C(=O)NCC(=O)NCC(=O)N1CCC[C@H]1C(=O)N[C@@H](CO)C(=O)N[C@@H](CO)C(=O)NCC(=O)N[C@@H](C)C(=O)N1CCC[C@H]1C(=O)N1CCC[C@H]1C(=O)N1CCC[C@H]1C(=O)N[C@@H](CO)C(=O)N[C@@H](CCCCN)C(N)=O)C(C)C
B3: Compound 7 (peptide)
peptide: Y[Aib]EGTVVSFYSI[Aib]LDKQAQ[Aib]EFVKWLLKGGPSSGAPPPSK-NH2
modifications: N-terminus assumed
SMILES: CC[C@H](C)[C@H](NC(=O)[C@H](CO)NC(=O)[C@H](Cc1ccc(O)cc1)NC(=O)[C@H](Cc1ccccc1)NC(=O)[C@H](CO)NC(=O)[C@@H](NC(=O)[C@@H](NC(=O)[C@@H](NC(=O)CNC(=O)[C@H](CCC(=O)O)NC(=O)C(C)(C)NC(=O)[C@@H](N)Cc1ccc(O)cc1)[C@@H](C)O)C(C)C)C(C)C)C(=O)NC(C)(C)C(=O)N[C@@H](CC(C)C)C(=O)N[C@@H](CC(=O)O)C(=O)N[C@@H](CCCCN)C(=O)N[C@@H](CCC(N)=O)C(=O)N[C@@H](C)C(=O)N[C@@H](CCC(N)=O)C(=O)NC(C)(C)C(=O)N[C@@H](CCC(=O)O)C(=O)N[C@@H](Cc1ccccc1)C(=O)N[C@H](C(=O)N[C@@H](CCCCN)C(=O)N[C@@H](Cc1c[nH]c2ccccc12)C(=O)N[C@@H](CC(C)C)C(=O)N[C@@H](CC(C)C)C(=O)N[C@@H](CCCCN)C(=O)NCC(=O)NCC(=O)N1CCC[C@H]1C(=O)N[C@@H](CO)C(=O)N[C@@H](CO)C(=O)NCC(=O)N[C@@H](C)C(=O)N1CCC[C@H]1C(=O)N1CCC[C@H]1C(=O)N1CCC[C@H]1C(=O)N[C@@H](CO)C(=O)N[C@@H](CCCCN)C(N)=O)C(C)C

The binders below were run against human GLP-1R (human, UniProt P43220) (assay: cell-based or functional assay).

Binder | Agonist activity (EC50, M) [M]
B1 | > 1e-06
B2 | > 1e-06
B3 | > 1e-06
